T1: 真核表达的人FGL1重组蛋白 (human FGL1 Leu23-Ile312 with C-terminal 6xHis, expressed in 293F cells) (human, UniProt Q08830 23-312)
T1 construct: also called 真核表达的FGL1蛋白; 真核表达的人FGL1蛋白
T1 sequence: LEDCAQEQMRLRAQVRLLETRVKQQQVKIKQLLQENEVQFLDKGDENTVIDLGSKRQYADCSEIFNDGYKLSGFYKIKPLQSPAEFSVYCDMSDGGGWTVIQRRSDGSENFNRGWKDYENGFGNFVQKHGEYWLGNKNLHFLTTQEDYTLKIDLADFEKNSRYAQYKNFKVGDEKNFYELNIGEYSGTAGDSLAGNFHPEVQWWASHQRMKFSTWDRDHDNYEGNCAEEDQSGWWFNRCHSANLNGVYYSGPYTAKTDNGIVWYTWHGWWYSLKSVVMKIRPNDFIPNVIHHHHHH

T2: 原核表达的TF-FGL1融合蛋白 (human FGL1 Leu23-Ile312 fused to trigger factor, pCold TF, expressed in E. coli BL21(DE3)) (human)
T2 construct: also called 原核表达的FGL1蛋白; TF-FGL1蛋白
T2 chain: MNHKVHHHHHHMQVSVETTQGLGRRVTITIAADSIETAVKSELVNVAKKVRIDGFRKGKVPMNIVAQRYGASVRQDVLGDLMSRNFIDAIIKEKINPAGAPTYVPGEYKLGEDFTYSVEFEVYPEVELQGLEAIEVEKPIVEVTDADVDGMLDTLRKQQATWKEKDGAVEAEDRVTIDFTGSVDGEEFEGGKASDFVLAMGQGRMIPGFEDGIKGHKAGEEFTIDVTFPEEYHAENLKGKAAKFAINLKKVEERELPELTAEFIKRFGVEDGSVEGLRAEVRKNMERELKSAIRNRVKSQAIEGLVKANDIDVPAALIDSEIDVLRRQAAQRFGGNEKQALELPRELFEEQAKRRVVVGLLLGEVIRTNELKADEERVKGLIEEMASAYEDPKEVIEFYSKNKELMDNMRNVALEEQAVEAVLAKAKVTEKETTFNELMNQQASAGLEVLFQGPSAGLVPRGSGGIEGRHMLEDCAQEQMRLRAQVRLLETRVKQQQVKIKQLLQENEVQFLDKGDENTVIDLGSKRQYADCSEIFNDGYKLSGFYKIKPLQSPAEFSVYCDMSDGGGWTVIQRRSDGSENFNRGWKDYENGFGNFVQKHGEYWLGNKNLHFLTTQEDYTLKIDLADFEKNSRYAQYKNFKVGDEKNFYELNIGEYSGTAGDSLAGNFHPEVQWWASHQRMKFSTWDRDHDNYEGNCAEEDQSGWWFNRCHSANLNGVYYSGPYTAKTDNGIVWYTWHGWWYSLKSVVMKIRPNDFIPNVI

B1: 克隆号为MJ9-4的杂交瘤细胞(CGMCC No.23016)分泌的抗FGL1单克隆抗体 (antibody, mouse IgG1, kappa, V domains shown)
VH: EVKLQQSGAELAKPGASVKMSCKASGYIFTGGWMHWVKQRPGQGLEWIGYINPSTDGTDYNQKFEDKATLTADKSSSTAYMQLSSLTSEDSAVYYCAREGYYGSSPYFDYWGQGTTLTVSS
VL: DIVITQTPATLSVTPGDSVSLSCRASQSVSNNLHWYQQKSHESPRLLIKYVSQSISGIPSRFSGSGSGTDFTLSINSVETEDFGMYFCQQSNSWPLYTFGGGTKLEIKR
notes: also called MJ9-4分泌的单克隆抗体; 第二单克隆抗体
B2: 克隆号为MJ9-1的杂交瘤细胞(CGMCC No.23015)分泌的抗FGL1单克隆抗体 (antibody, mouse IgG1, kappa, V domains shown)
VH: EVQLVESGGGLVKPGGSLKLSCAASGFTFSDGYMYWVRQTPEKRLEWVATISDGGSGTYYPDSVKGRFTISRDNAKNNLYLQMSSLKSEDTAMYYCARAATVTRWFAYWGQGTLVTVSA
VL: DIQMNQSPSSLSASLGDTITITCHASYNINVWLTWYQQKPGNIPKLLIYKASKLHTGVPSRFSGSGSGTGFTLTISSLQPEDIATYYCQQGQSYPLTFGGGTKLEIKR
notes: also called MJ9-1分泌的单克隆抗体; 第一单克隆抗体

What was measured:
[1] = molecular target: T1, 真核表达的人FGL1重组蛋白 (human FGL1 Leu23-Ile312 …); experiment: indirect ELISA, antigen coated at 0.5 µg/mL, purified antibody 0.5 µg/mL
[2] = molecular target: T2, 原核表达的TF-FGL1融合蛋白 (human FGL1 …); experiment: as above
[3] = molecular target: T1, 真核表达的人FGL1重组蛋白 (human FGL1 Leu23-Ile312 …); experiment: indirect ELISA screen, hybridoma supernatant on coated human FGL1 recombinant protein (0.5 µg/mL)

Row | Binder | binding result [1] | binding result [2] | binding result [3]
1 | B1 | binds | binds | 
2 | B2 |  | binds | binds
